Results reported in patent US20110014213A1 (JURIDICAL FDN THE CHEMO SERO THERAP RES INS, published 2011).

Legend:
mouse α4 integrin = biological target: T1, mouse α4 integrin (mouse, UniProt Q00651 41-1039); test: flow cytometry on CHO/mα4
T1 construct: whole, on cells; Control antigen; also called CHO/mα4
T1 sequence (looked up): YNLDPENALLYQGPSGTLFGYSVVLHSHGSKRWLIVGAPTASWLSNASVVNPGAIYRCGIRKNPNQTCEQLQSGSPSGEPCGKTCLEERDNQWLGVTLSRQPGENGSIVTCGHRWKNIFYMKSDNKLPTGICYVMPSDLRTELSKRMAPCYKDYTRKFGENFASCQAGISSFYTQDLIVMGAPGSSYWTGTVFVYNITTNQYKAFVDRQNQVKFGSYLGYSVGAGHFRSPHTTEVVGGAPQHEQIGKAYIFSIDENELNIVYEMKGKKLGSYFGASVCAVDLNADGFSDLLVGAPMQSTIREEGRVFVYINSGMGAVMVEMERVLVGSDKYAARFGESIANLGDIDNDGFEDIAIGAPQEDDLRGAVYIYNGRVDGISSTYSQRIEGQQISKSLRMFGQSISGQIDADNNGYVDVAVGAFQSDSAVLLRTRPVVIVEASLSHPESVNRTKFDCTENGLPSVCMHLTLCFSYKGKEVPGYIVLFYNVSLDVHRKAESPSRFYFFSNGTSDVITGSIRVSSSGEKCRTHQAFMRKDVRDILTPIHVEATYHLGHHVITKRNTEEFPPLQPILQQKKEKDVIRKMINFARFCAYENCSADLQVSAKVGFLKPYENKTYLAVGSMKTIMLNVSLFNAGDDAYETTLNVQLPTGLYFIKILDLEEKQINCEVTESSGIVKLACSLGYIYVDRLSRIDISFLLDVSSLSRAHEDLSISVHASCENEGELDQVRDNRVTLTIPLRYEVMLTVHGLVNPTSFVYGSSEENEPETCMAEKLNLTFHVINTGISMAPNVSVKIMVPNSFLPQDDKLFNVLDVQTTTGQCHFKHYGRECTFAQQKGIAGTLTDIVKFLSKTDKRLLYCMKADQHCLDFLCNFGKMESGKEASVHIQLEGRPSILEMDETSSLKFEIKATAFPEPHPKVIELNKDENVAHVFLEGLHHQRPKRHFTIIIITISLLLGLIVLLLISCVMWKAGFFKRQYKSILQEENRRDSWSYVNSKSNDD
Description: As a result, the reactivity with mouse α9 and human α9 was confirmed. Although the reactivity with each of CHO and CHO/mα4 was also assessed in the same manner, the reactivity with mouse α4 was not observed (FIG. 6).

hα9/mL1-EGFP = biological target: T2, hα9/mL1-EGFP (human, UniProt Q13797 30-1035); test: Cell ELISA on transiently expressing CHO cells
T2 construct: an offset must be applied; also called L1 loop region variant of human α9-EGFP; not shown: EGFP from pEGFP-N1 vector (Clontech) fused to the C-terminal (cytoplasmic region)
T2 chain: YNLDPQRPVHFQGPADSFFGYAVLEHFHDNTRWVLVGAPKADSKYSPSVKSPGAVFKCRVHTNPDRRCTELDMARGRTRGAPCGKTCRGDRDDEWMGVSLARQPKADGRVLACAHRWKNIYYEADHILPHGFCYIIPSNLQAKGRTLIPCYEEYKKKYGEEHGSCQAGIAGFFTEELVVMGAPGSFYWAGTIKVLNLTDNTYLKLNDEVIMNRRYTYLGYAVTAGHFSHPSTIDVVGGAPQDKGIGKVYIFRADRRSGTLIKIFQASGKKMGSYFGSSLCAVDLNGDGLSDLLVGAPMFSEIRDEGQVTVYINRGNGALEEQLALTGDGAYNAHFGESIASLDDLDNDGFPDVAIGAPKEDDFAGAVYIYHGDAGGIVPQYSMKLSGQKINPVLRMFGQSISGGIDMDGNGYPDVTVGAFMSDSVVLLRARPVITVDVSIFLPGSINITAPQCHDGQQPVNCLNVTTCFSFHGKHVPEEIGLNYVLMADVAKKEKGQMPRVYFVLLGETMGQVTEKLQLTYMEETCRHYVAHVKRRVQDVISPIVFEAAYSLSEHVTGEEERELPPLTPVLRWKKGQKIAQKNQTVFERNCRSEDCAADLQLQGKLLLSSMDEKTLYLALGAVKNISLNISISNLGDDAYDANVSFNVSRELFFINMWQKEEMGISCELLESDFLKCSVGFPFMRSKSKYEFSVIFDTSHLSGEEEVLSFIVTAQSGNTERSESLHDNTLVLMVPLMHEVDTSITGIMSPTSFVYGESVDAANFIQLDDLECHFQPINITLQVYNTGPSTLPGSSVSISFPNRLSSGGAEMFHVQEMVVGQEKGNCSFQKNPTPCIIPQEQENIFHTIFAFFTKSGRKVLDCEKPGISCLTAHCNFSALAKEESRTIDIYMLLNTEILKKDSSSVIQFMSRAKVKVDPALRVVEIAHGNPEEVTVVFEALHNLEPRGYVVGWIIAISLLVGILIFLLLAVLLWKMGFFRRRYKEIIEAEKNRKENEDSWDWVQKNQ
Description: CHO/mα9 and CHO were seeded on a 96 well plate (costar) at 2×10⁴ cells/100 μL/well, and incubated overnight at 37° C., 5% CO₂. The medium was suctioned, and the cells were washed with PBS, and reacted with phage antibody diluted with 1% BSA/PBS. The detection was performed by using horse-radish peroxidase (HRP)-labeled anti-M13 antibody (Amersham) and TMB (SIGMA) in combination. The absorbance at wavelengths 450 nm and 650 nm was measured by a microplate reader (Molecular Devices).
SW480/mα9, SW480/hα9 and SW480 were used as antigens, 1% BSA/PBS containing 5% FBS was used as a dilution solution, an HRP-labeled anti-mouse IgG antibody (ZYMED) was used for detection, and the rest was performed under the same conditions as in Example 4.
Next, analysis by Cell ELISA was performed. Various cells after about 24 hr from gene transfection were collected, and seeded on a 96 well plate at 2×10⁴ cells/100 μL/well. The rest was performed under the same conditions as in Example 11.

B1: MA9-413 scFv-Fc (Fc fusion)
scFv: EVQLVESGGGVVRPGGSLRLSCAASGFAFGDYGMSWVRQAPGKGLEWVSGINWNGGSTGYADSVKGRFTTSRDNAKNSLYLQMNSLRAEDTALYYCARDENYDILTGYYYYGMDVWGQGTTVTVSSGGGGSGGGGSGGGGSQSVVTQPPSVSAAPGQKVTISCSGSSSNIGNNYVSWYQQLPGTAPKLLIYDNNKRPSGIPDRFSASKSGTSATLGITGLQTGDEADYYCGTWDSSLTVWAFGGGTKLTVLG
notes: Divalent scFv-Fc with mouse IgG1 Fc, expressed in CHO-DG44; also called ANM-2; not shown: Fc region of mouse IgG1 and its junction to the scFv
- binding result (mouse α4 integrin): no binding
- binding result (hα9/mL1-EGFP): binds
